The results in this text go back to US20240368250A1 (Ablynx, published 2024).

The target in test [1] is T1, Human FcRn (biotinylated human FcRn) (human, UniProt P61769 21-119).
T1 construct: Biotinylated human FcRn captured on a Series S Sensor Chip SA; also called human neonatal Fc receptor; hFcRn
Description: SPR Biacore 8K+, biotinylated hFcRn on SA chip (~700 RU), pH 6.0, bivalent analyte fit (ka1).

The target in test [2] is T2, Mouse serum albumin (MSA; Albumin Bioscience Cat No. 2601) (mouse, UniProt P07724 25-608). Description: SPR Biacore 8K+, MSA on C1 chip, pH 7.4, bivalent analyte fit (KD1). On the technique in general: SPR reads the build-up and loss of mass on a sensor chip optically.
Test [3] deals with T1, Human FcRn (biotinylated human FcRn). Description: SPR Biacore 8K+, biotinylated hFcRn on SA chip (~700 RU), pH 6.0, bivalent analyte fit (kd1).
Test [4] deals with T2, Mouse serum albumin (MSA; Albumin …). Description: SPR Biacore 8K+, MSA on C1 chip, pH 7.4, bivalent analyte fit (kd1).
Test [5] concerns the target T1, Human FcRn (biotinylated human FcRn). Description: SPR Biacore 8K+, biotinylated hFcRn on SA chip (~700 RU), pH 6.0, bivalent analyte fit (KD1).
Test [6] deals with T3, Human serum albumin (HSA; Sigma-Aldrich Cat No. A8763) (human, UniProt P02768 25-609). Description: SPR Biacore 8K+, HSA on C1 chip, pH 7.4, bivalent analyte fit (ka1).
Test [7] concerns the target T3, Human serum albumin (HSA; Sigma-Aldrich …). The test is described as follows: SPR Biacore 8K+, HSA on C1 chip, pH 7.4, bivalent analyte fit (KD1).
For test [8], the target named is T2, Mouse serum albumin (MSA; Albumin …). The test is described as follows: SPR Biacore 8K+, MSA on C1 chip, pH 7.4, bivalent analyte fit (ka1).
Test [9] has as its target T3, Human serum albumin (HSA; Sigma-Aldrich …). The test is described as follows: SPR Biacore 8K+, HSA on C1 chip, pH 7.4, bivalent analyte fit (kd1).
For test [10], the target named is T1, Human FcRn (biotinylated human FcRn). Description: SPR Biacore 8K+, biotinylated hFcRn on SA chip (~700 RU), pH 6.0, bivalent analyte fit.

By kon is commonly meant the second-order rate constant of association. By koff is commonly meant the rate constant with which the complex falls apart. A high value points to a short-lived complex.

B1: T-0263-00_TP123 (antibody, human IgG1, kappa)
heavy 1: not shown
heavy 2: EVQLVESGGGLVQPGGSLRLSCAASGFNIRDTYIHWVRQAPGKGLEWVARIYPTQGYTRYADSVKGRFTISADTSKNTAYLQMNSLRAEDTAVYYCSRWGGEGFYAMDYWGQGTLVTVSSASTKGPSVFPLAPSSKSTSGGTAALGCLVKDYFPEPVTVSWNSGALTSGVHTFPAVLQSSGLYSLSSVVTVPSSSLGTQTYICNVNHKPSNTKVDKKVEPKSCDKTHTCPPCPAPELLGGPSVFLFPPKPKDTLMISRTPEVTCVVVDVSHEDPEVKFNWYVDGVEVHNAKTKPREEQYNSTYRVVSVLTVLHQDWLNGKEYKCKVSNKALPAPIEKTISKAKGQPREPQVCTLPPSRDELTKNQVSLSCAVKGFYPSDIAVEWESNGQPENNYKTTPPVLDSDGSFFLVSKLTVDKSRWQQGNVFSCSVMHEALHNRFTQKSLSLSPGGGGGSGGGSEVQLVESGGGVVQPGGSLRLSCAASGFTFRSFGMSWVRQAPGKGPEWVSSISGSGSDTLYADSVKGRFTISRDNSKNTLYLQMNSLRPEDTALYYCTIGGSLSRSSQGTLVTVSSA
light: not shown
notes: Full-length IgG1 knob-in-hole with two C-terminal ALB23002-A (9GS), one on each heavy chain
For the molecule B1, the on-rate (kon) in test [1] was 63000 M⁻¹ s⁻¹; in test [6], 37500 M⁻¹ s⁻¹; in test [8], 61400 M⁻¹ s⁻¹. Further, the Kd amounted to 560 nM in test [2], 2400 nM in test [5] and 67.4 nM in test [7]. For the same molecule, the off-rate (koff) in test [3] amounted to 0.15 s⁻¹; in test [4] it was 0.0344 s⁻¹; in [9], 0.00253 s⁻¹. Besides, the ka2 in [10] is 1.7e-05 1/RUs. In addition, the kd2 in [10] was found to be 0.00059 s⁻¹.
